B1: 139-V3 CAR (other)
chain: DIQMTQSPSSLSASVGDRVTITCRASQGIRNNLAWYQQKPGKAPKRLIYAASNLQSGVPSRFTGSGSGTEFTLIVSSLQPEDFATYYCLQHHSYPLTSGGGTKVEIKGGGGSGGGGSGGGGSEVQVLESGGGLVQPGGSLRLSCAASGFTFSSYAMSWVRQAPGKGLEWVSAISGSGGSTNYADSVKGRFTISRDNSKNTLYLQMNSLRAEDTAVYYCAGSSGWSEYWGQGTLVTVSSTTTPAPRPPTPAPTIASQPLSLRPEACRPAAGGAVHTRGLDFACDIYIWAPLAGTCGVLLLSLVITLYCKRGRKKLLYIFKQPFMRPVQTTQEEDGCSCRFPEEEEGGCELRVKFSRSADAPAYQQGQNQLYNELNLGRREEYDVLDKRRGRDPEMGGKPRRKNPQEGLYNELQKDKMAEAYSEIGMKGERRRGKGHDGLYQGLSTATKDTYDALHMQALPPR
notes: Chimeric antigen receptor on the surface of primary T cells (mRNA transfection); also called CARs 139-V3; 24
B2: 139-V5 CAR (other)
chain: DIQMTQSPSSLSASVGDRVTITCRASQGIRNNLAWYQQKPGKAPKRLIYAASNLQSGVPSRFTGSGSGTEFTLIVSSLQPEDFATYYCLQHHSYPLTSGGGTKVEIKGGGGSGGGGSGGGGSEVQVLESGGGLVQPGGSLRLSCAASGFTFSSYAMSWVRQAPGKGLEWVSAISGSGGSTNYADSVKGRFTISRDNSKNTLYLQMNSLRAEDTAVYYCAGSSGWSEYWGQGTLVTVSSEPKSPDKTHTCPPCPAPPVAGPSVFLFPPKPKDTLMIARTPEVTCVVVDVSHEDPEVKFNWYVDGVEVHNAKTKPREEQYNSTYRVVSVLTVLHQDWLNGKEYKCKVSNKALPAPIEKTISKAKGQPREPQVYTLPPSRDELTKNQVSLTCLVKGFYPSDIAVEWESNGQPENNYKTTPPVLDSDGSFFLYSKLTVDKSRWQQGNVFSCSVMHEALHNHYTQKSLSLSPGKKDPKIYIWAPLAGTCGVLLLSLVITLYCKRGRKKLLYIFKQPFMRPVQTTQEEDGCSCRFPEEEEGGCELRVKFSRSADAPAYQQGQNQLYNELNLGRREEYDVLDKRRGRDPEMGGKPRRKNPQEGLYNELQKDKMAEAYSEIGMKGERRRGKGHDGLYQGLSTATKDTYDALHMQALPPR
notes: Chimeric antigen receptor on the surface of primary T cells; also called CARs 139-V5; 25
B3: MR1-V3 CAR (other)
chain: QVQLQQSGGGLVKPGASLKLSCVTSGFTFRKFGMSWVRQTSDKRLEWVASISTGGYNTYYSDNVKGRFTISRENAKNTLYLQMSSLKSEDTALYYCTRGYSSTSYAMDYWGQGTTVTVGGGGSGGGGSGGGGSDIELTQSPASLSVATGEKVTIRCMTSTDIDDDMNWYQQKPGEPPKFLISEGNTLRPGVPSRFSSSGTGTDFVFTIENTLSEDVGDYYCLQSFNVPLTFGDGTKLEKALTTTPAPRPPTPAPTIASQPLSLRPEACRPAAGGAVHTRGLDFACDIYIWAPLAGTCGVLLLSLVITLYCKRGRKKLLYIFKQPFMRPVQTTQEEDGCSCRFPEEEEGGCELRVKFSRSADAPAYQQGQNQLYNELNLGRREEYDVLDKRRGRDPEMGGKPRRKNPQEGLYNELQKDKMAEAYSEIGMKGERRRGKGHDGLYQGLSTATKDTYDALHMQALPPR
notes: Chimeric antigen receptor on the surface of primary T cells; It has the MR1 scFv (VH, (G4S)3 linker, VL), CD8 alpha hinge, CD8 alpha TM, 4-1BB and CD3 zeta; also called 26
B4: MR1-V5 CAR (other)
chain: QVQLQQSGGGLVKPGASLKLSCVTSGFTFRKFGMSWVRQTSDKRLEWVASISTGGYNTYYSDNVKGRFTISRENAKNTLYLQMSSLKSEDTALYYCTRGYSSTSYAMDYWGQGTTVTVGGGGSGGGGSGGGGSDIELTQSPASLSVATGEKVTIRCMTSTDIDDDMNWYQQKPGEPPKFLISEGNTLRPGVPSRFSSSGTGTDFVFTIENTLSEDVGDYYCLQSFNVPLTFGDGTKLEKALEPKSPDKTHTCPPCPAPPVAGPSVFLFPPKPKDTLMIARTPEVTCVVVDVSHEDPEVKFNWYVDGVEVHNAKTKPREEQYNSTYRVVSVLTVLHQDWLNGKEYKCKVSNKALPAPIEKTISKAKGQPREPQVYTLPPSRDELTKNQVSLTCLVKGFYPSDIAVEWESNGQPENNYKTTPPVLDSDGSFFLYSKLTVDKSRWQQGNVFSCSVMHEALHNHYTQKSLSLSPGKKDPKIYIWAPLAGTCGVLLLSLVITLYCKRGRKKLLYIFKQPFMRPVQTTQEEDGCSCRFPEEEEGGCELRVKFSRSADAPAYQQGQNQLYNELNLGRREEYDVLDKRRGRDPEMGGKPRRKNPQEGLYNELQKDKMAEAYSEIGMKGERRRGKGHDGLYQGLSTATKDTYDALHMQALPPR
notes: Chimeric antigen receptor on the surface of primary T cells; It has the MR1 scFv, IgG1 hinge, CD8 alpha TM, 4-1BB and CD3 zeta; also called 27

Each binder was assayed against T1, recombinant protein consisting of the extracellular domain of the human EGFRVIII protein fused with a murine … (human; murine, UniProt P00533 25-645) (assay: flow cytometry of CAR on primary T cells; by the general methods detected through binding of EGFRvIII ECD-mouse IgG1 Fc and a PE anti-mouse Fc antibody).
T1 construct: extracellular domain; It is described in the general methods as the reagent for detecting CAR on T cells by flow cytometry; also called EGFRvIII-mouse Fc detection reagent; not shown: murine IgG1 Fc fragment
Method: Transduction of T-cells with recombinant lentiviral vectors expression the CAR was carried out three days after T-cell purification/activation. Lentiviral vectors produced by Vectalys SA (Toulouse, France) by transfection of genomic and helper plasmids in HEK-293 cells may be used. Transductions were carried out at a multiplicity of infection of 5. CAR detection at the surface of T-cells is performed using a recombinant protein consisting on the extracellular domain of the human […] protein fused together with a murine IgG1 Fc fragment (produced by LakePharma). Binding of this protein to the CAR molecule is detected with a PE-conjugated secondary antibody (Jackson lmmunoresearch) targeting the mouse Fc portion of the protein, and analyzed by flow cytometry.
B1: binds.
B2: binds.
B3: binds.
B4: binds.

Source: patent US20170275366A1 (Pfizer, published 2017)
